Source: the nanobody polyreactivity screen of Harvey et al. (2022)

Assay: yeast display, Sf9 membrane polyspecificity reagent, FACS + sequencing; frameworks hold sequencing errors
How it was run: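 Nanobodies came from a synthetic yeast display library in Saccharomyces cerevisiae BJ5465, induced with galactose for 36–48 hours and stained for 1 hour at 4 °C with 10% biotinylated, detergent-solubilized Sf9 membrane reagent. Cells were enriched on streptavidin microbeads and then FACS-sorted, with low and high (top ~1%) gates set on anti-HA fluorescence for expression and streptavidin fluorescence for reagent binding. Each polyreactivity label reflects the gate a clone came from. Genes were amplified by colony PCR, sequenced by MiSeq 2 × 250 and filtered by CDR length.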

Sequence | polyreactivity (PSR sort gate)
QVQLVESGGGLVQAGGSLRLSCAASGFTFWKYTMGWYRQAPGKERELVATISSSSGSTTYADSVKGRFTISRDNAKNTVYLQMYSLKPEDTAVYYCNVDDPFYSGVVEFDYWGQGTQVTVSS | low polyreactivity
QVQLQESGGGLVQAGGSLRLSCAASGSISYPRTMGWYREAPGKEREFVAGIGVGGTTYYADSVKGRFTISRDNAKNTVYLQMNSLKPEDAAVYYCAVAAYYDKYYVYWGQGTQVTVSC | low polyreactivity
QVQLVESGGGLVQAGGSLRLSCAASGFIFDWYAMGWYRQAPGKERELVAAITRSGGNTYYADSVKGRFTISRDNAKNTVYLQMNSLKPEDTAVYYCNAVAAVYAYGHDYWGQGTQVTVSS | high polyreactivity
QVQLVESGGGLVQAGGSLRRTCAASGSIFVGYAMGWYRQEPGKERELVASITNGDSTNYADSVKGRFTISRDNAKNTVSYQMNSLKPEDTAVYYCAADYYSVHPSGWYGYEYWGQGTQVTVSS | low polyreactivity
QVQLVESGGGLVQAGGSLRLSCAASGFTFSYYAMGWYRQAPGHEREFVAAIIWNGTSTYYADSVKGRFTISRDNAKNTVYLQMNSLKPEDTAVYYCAAYDVHDYDYWGQGTQVTVSS | high polyreactivity
QVQLVESGGGLVQAGGSLRLSCAASGFTFEVNAMGWYRQAPGKERELVAAINRGGSTYYADSVKGRFTISRDNAKNTVYFQMNSLKPEDTAVYYCNRDYEYPTYPHDYWGQGTQVTVSS | low polyreactivity
QVQLVESGGGLVQAGGSLRLSCAASGRIISSYAMGWYRQAPGKERELVAAITSSGGSTYYADSVKGRFTISRDNAKNTVYLQMNSLKPEDTAVYYCAARVFARYYTAYGVETRREEDYWGQGTQLTVSS | low polyreactivity
QVQLVESGGGLVQAGGSLRLSCAASGRTFYVYTMGLYRQAPGKELELVAAISSSGGSTYYADSVKGRFTISRDNAKNTVYLQMNSLKPEDTAVYYCNSQWSLTRYGYWGQGTQVTVSS | high polyreactivity
QVQLVESGGGLVQAGGSLRLSCAASGSTFDFNAMGWYRQAPGKERELVAAITGSDGNTYYADSVKGRFTISRDNAKNNVYLQMNTLTPEDTAVYYFAADFSWWSKYVVLYDYWGQGTQVTVSS | low polyreactivity
QVQLVESGGGLVQAGGSLRLSCAASGRTFAYYAMGWYRQAPGTERELVATINSAGCTYYADSVKGRFTISRDNAKNTVYLQMNSLKPEDTAVYYCNAAYKSQVRYRRYIYWGQGTQVTVSS | high polyreactivity
QDQLVESGGGLVQAGGSLRLSCAASGPIFYSNAMGWYRQAPGKERELVAAISSGDGITYYADSVKGRFTISRDNAKNTVYLQMNSLKPEDTAVYYCAADGYYDYPYSGDYWGQGTQVTVSS | high polyreactivity
QVQLVESGGGLVQAGGSLRLSCAASGRIFVYNAMGWYRQAPGKERELVASISWSGDSTYADSVKGRFTISRDNAKNTVYLQMNSLKPEDTAVYYCAADNGSKEFDYWGQGTQVTVSS | low polyreactivity
QVQLQESGGGLVQAGGDLRLSCAASGNIFRDYIMGWYRQAPGKEREFVAGIDRGANTNYADSVKGRFTISRDNAKNTVYLQMNSLKQEDTAVYYCAVHTAIVPDFIYWGQGTQVTVSS | low polyreactivity
QVQLVESGGGLVQAGGSLRLSCAASGRTFRRYVMGWYRQAPGKERELVAAIRWTGGSTYYADSVKGRFTISRDIAKNTVYLQMNSLKPEDTAVYYWAASSYICYGYWGQGTQVTVSS | high polyreactivity
QFQLLESGGGLVQAGGSLRLSCAASGSIFRSNTMGWSRQAPGKAREFVAAISRRGSRTYADSVKGRFTISRDNAKNTVYLQMNSRKPEDTAVYYCAAERGYQAHPGQGDYWGQGTQVTVSA | high polyreactivity
QVQLVESGGGLVQAGGSLRLSCAASGINFDDYVMGWYRQAPGKERELFAAISSSGGSTYYADSVKGRFTISRDNAKNTVYLQMNSLKPEDTAVYYCAADYGSYGVVRAVSIEYEYWGQGTKVTVSS | low polyreactivity
QVQLEESGGGLVQAGGSLRLSCAASGRIFTANAMGWYRQAPGKERELVASISYRSGRTRYADSVKGRFTISRDNAKNTVYLQMNSLKPEDTAVYYCATDRGRRYDYWGQGTQVTVSS | high polyreactivity
